From US20230104769A1 (MABWELL SHANGHAI BIOSCIENCE, published 2023) come the findings set out here.

The target of experiment [1] is T1, full-length human PD-1 N58A expressed on HEK293 cells (human, UniProt Q15116 25-288).
T1 construct: whole, on cells; Expression vector carries EGFP; the mutation removes the N-glycosylation site; also called PD-1-mut N58A
The experiment is described as follows: flow cytometry on transfected HEK293 cells. Here is the method: The mutants obtained were inserted into an expression vector carrying EGFP to construct five plasmids expressing full-length human PD-1 (WT, N49A, N58A., N116A, N74A). […] 2 days after the transfection, the cells were collected to a 96-well plate, centrifuged at 1500 rpm for 2 minutes, and the supernatants in the wells were discarded. […] The working concentration of the primary antibodies was 2 μg/ml, and cells without primary antibodies added were used as negative controls. The mixtures obtained were centrifuged at 1500 rpm for 2 minutes, and supernatants were discarded. The cells in each well were resuspended by adding 200 μl PBS and the suspensions obtained were then centrifuged at 1500 rpm for 2 minutes, then supernatants were discarded. Later, the obtained cells were incubated with 200 μl goat anti-human IgG(Fc)-Cy5 (Cat: 12136, Lot: 017M4800V, Sigma) diluted with 5% BSA added into each well for 1 h at room temperature, then centrifuged at 1500 rpm for 2 minutes, and supernatants were discarded. The cells were resuspended by adding 200 μl PBS and the suspensions obtained were then centrifuged at 1500 rpm for 2 minutes, then supernatants were discarded. The cells again were resuspended by adding 200 μl PBS thereto and detected by flow cytometry (B49007AD, SNAW31211).

Experiment [2] deals with T2, recombinant human PD-1 protein (NCBI accession No.: NP_005009.2, 21aa-167aa) (human, UniProt Q15116 21-167).
T2 construct: range 21-167; also called recombinant human PD-1 extracellular domain protein; PD-1-ECD
T2 sequence (Q15116 21-167 limits assumed, form in doubt): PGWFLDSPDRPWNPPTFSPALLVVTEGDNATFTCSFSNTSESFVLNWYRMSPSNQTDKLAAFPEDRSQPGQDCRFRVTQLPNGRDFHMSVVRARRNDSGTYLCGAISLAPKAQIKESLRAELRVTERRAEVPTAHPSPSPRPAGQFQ
The experiment is described as follows: ELISA, biotinylated h317 on plate-bound PD-1. Here is the method: (§1) The plates were washed three times with PBS subsequently, and 5% BSA-PBS was added for blocking for 60 min at 37° C. […] Again, the plates were washed four times with PBST, then HRP-streptavidin (Cat: 019-035-098, Jackson immuno Research) with a dilution of 1:100 was added for a 30 min incubation at 37° C. Once again, the plates were washed four times with PBST, and TMB substrate was added for developing color through incubating for 10 min at 37° C., then the reaction was terminated by adding 2 M HCl. With 630 nm as reference wavelength, the absorbance at a wavelength of 450 nm (A450 nm-630 nm) of each well in the plates was read and recorded.
(An ELISA detects its analyte on a solid surface through an enzyme-linked reagent.)

In experiment [3] the target is T3, cynomolgus monkey PD-1 (Cat: 90311-C08H, Sino Biological Inc.) (cynomolgus monkey, UniProt B0LAJ3 25-170).
T3 construct: Bought recombinant protein; not shown: The vendor's tag
T3 sequence (B0LAJ3 entry or part of it C08H C08H limits assumed): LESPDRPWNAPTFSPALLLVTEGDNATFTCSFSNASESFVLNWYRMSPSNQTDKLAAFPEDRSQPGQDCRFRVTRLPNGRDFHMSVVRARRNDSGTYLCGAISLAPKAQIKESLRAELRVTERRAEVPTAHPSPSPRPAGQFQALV
The experiment is described as follows: ELISA, biotinylated h317 on plate-bound PD-1. Here is the method:
as §1

The target in experiment [4] is T4, human PD-1-hFc (NCBI accession No.: NP_005009.2, 21aa-167aa, Lot: 20180329) (human, UniProt Q15116 21-167).
T4 construct: range 21-167; not shown: human Fc (hFc)
T4 sequence (Q15116 21-167 limits assumed, form in doubt): as the sequence (Q15116 21-167 limits assumed, form in doubt) above
The experiment in a line: competition ELISA, plate-bound PD-1-hFc, competitor PD-L1-mFc 1 µg/mL; competitor PD-L1. How it is done: Afterwards, HRP-anti-mouse Fc (Cat: 115-035-071, Jackson Immuno Research) which was diluted at a dilution of 1:5000 was added to the plate for reacting for 45 min. Later, TMB substrate (Cat: ME142, Beijing Taitianhe Biotech Co., Ltd.) was added to develop color for 15 min, which was followed by the addition of 2 M HCl to terminate the reaction and then the plate was detected by a microplate reader. With 630 nm as reference wavelength, the absorbance at 450 nm (A450 nm-630 nm) of each well in the plate was read and recorded.

Experiment [5] concerns the target T2, recombinant human PD-1 protein (NCBI …). The experiment is described as follows: BLI (Octet QKe), biotin-labelled antibody on streptavidin sensor, PD-1 100 nM-12.5 nM. Here is the method: Determination of the binding kinetics: the affinity of the antibody was determined with Octet QKe system from Fortebio using an assay of capturing biotin-labeled antibody with streptavidin. […] Both the binding and dissociating were conducted for 300 s.

For experiment [6], the target named is T4, human PD-1-hFc (NCBI accession No.: …). The experiment in a line: competition ELISA, plate-bound PD-1-hFc, competitor PD-L2-hFc-Biotin 2 µg/mL; competitor PD-L2. How it is done: Afterwards, HRP-streptavidin (Cat: 52438, Sigma) which was diluted at a dilution of 1:2000 was added to the plate for reacting for 30 min. Later, TMB substrate was added to develop color for 15 min, which was followed by the addition of 2 M HCl to terminate the reaction and then the plate was detected by a microplate reader. With 630 nm as reference wavelength, the absorbance at 450 nm (A450 nm-630 nm) of each well in the plate was read and recorded.

In experiment [7] the target is T2, recombinant human PD-1 protein (NCBI …). The experiment is described as follows: ELISA, plate coated with the protein at 1 µg/mL, biotinylated h317, HRP-streptavidin. How it is done:
as §1, with “Immuno” for “immuno”

The target in experiment [8] is CD28 (Cat: 11524-HCCH, Sino Biological Inc.) (human, UniProt P10747 19-152). The experiment is described as above. How it is done: as §1, with “Immuno” for “immuno”
The target of experiment [9] is CTLA4 (Cat: 11159-H08H, Sino Biological Inc.) (human, UniProt P16410 36-162). Described as above. How it is done:
as §1, with “Immuno” for “immuno”

Sequence of CTLA4 (Cat: 11159-H08H, Sino Biological Inc.) (P16410 36-162 limits assumed): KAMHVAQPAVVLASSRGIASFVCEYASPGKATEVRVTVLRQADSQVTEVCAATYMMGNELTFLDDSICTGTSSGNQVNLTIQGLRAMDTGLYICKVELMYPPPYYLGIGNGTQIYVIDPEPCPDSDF
T1 sequence (Q15116 25-288 N58A): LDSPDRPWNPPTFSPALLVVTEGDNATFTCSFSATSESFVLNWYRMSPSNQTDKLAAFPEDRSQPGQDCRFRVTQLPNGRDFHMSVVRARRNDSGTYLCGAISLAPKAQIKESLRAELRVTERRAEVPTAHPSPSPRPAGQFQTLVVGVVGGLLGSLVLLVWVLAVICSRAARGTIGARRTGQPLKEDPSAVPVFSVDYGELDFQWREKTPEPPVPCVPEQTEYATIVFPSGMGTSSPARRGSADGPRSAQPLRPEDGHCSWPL

B1: h317 (humanized anti-human PD-1 antibody) (antibody, V domains shown)
VH: EVQLVESGGGLVKPGGSLRLSCAASGFTFSSYDMSWVRQAPGKGLEWVATISGGGSYTYYPDSVKGRFTISRDNAKNSLYLQMNSLRAEDTAVYYCASPDSSGVAYWGQGTLVTVSS
VL: DIVMTQSPLSLPVTPGEPASITCKASQDVETVVAWYLQKPGQSPRLLIYWASTRHTGVPDRFSGSGSGTDFTLKISRVEAEDVGVYYCQQYSRYPWTFGQGTKL
notes: also called h317-biotin; biotinylated h317
For orientation: EC50 means the concentration at which the effect is half-maximal. The term IC50 denotes the concentration needed to halve the response being measured. For orientation: Kd means the free concentration of one partner at which half of the binding sites on the other are occupied at equilibrium, for simple one-to-one binding. A word on the koff: it is the rate constant with which the complex falls apart. Usually kon stands for a measure of how fast the partners come together. Usually EC50 (read off the curve) stands for the midpoint of the concentration-response curve. With B1, the binding result was “no binding (tested: 2 µg/ml)” in experiment [1], “no binding (tested: 1 nM (log(nM) 0 on the axis))” in experiment [8] and “no binding (tested: 1 nM (log(nM) 0 on the axis))” in [9]. For the same molecule, the EC50 is 0.0047 nM in experiment [2] and 0.0182 nM in experiment [3]. Further, the IC50 was found to be 1.4 nM in experiment [4] and 1.2 nM in experiment [6]. The Kd in [5] is 6.16 nM. For the same molecule, the koff in [5] was 0.00095 s⁻¹. In addition, in experiment [5], the kon is 154000 M⁻¹ s⁻¹. For the same molecule, the “EC50 (read off the curve)” value in [7] is ~0.001 nM.
